Measured values taken from PMC3641832.

Legend:
[1] = target: cce_0566 from Cyanothece sp. ATCC 51142 (DUF269 family protein) (Cyanothece sp. ATCC 51142); test: crystal structure
[2] = target: cce_0566 from Cyanothece sp. ATCC 51142 (DUF269 family protein) (Cyanothece sp. ATCC 51142); test: NMR 15N relaxation
[3] = target: cce_0566 from Cyanothece sp. ATCC 51142 (DUF269 family protein) (Cyanothece sp. ATCC 51142); test: SEC

stoichiometry N [1]: 2
stoichiometry N [2]: 2
stoichiometry N [3]: 2
Substance: cce_0566 from Cyanothece sp. ATCC 51142 (DUF269 family protein) (natural protein)
